Test results as given in article PMC8809517, “Cofactor-independent RNA editing by a synthetic S-type PPR protein”.

Experiments:
Assay in all cases: high-throughput RNA pulldown from lysate on Ni-NTA beads; HRP: 50 mM Tris pH 8, 150 mM NaCl, 1 mM beta-mercaptoethanol, 50 ug/ml BSA, 3 ug/ml yeast RNA, 0.5% heparin; ITC and FP: Tris pH 8, 200 mM KCl, 5% glycerol; MST: 50 mM Tris pH 8, 200 mM NaCl, 1 mM DTT, BSA, heparin, 0.05% Tween 20
Conditions in all cases: tags: N-terminal His-eGFP
[1] = target: T1, GFP-9S library array, motif 4 ND N98W;D124S (synthetic construct, N98W;D124S)
T1 chain: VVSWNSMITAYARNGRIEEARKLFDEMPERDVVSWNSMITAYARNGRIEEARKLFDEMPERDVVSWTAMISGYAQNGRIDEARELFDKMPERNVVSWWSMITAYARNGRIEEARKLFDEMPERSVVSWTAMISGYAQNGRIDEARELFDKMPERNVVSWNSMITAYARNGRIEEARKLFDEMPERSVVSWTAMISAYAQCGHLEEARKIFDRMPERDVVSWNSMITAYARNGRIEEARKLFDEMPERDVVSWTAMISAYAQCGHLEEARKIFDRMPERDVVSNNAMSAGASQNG

[2] = target: T2, GFP-9S library array, motif 4 ND N98P;D124P (synthetic construct, N98P;D124P)
T2 chain: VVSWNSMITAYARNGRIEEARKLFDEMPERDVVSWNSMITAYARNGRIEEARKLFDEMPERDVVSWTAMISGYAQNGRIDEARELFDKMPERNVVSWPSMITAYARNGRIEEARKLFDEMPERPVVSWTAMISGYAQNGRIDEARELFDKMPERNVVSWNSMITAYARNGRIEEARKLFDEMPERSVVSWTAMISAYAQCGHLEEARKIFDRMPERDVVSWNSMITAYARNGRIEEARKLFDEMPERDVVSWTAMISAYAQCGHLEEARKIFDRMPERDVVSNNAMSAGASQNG

[3] = target: T3, GFP-9S library array, motif 4 ND N98I;D124L (synthetic construct, N98I;D124L)
T3 chain: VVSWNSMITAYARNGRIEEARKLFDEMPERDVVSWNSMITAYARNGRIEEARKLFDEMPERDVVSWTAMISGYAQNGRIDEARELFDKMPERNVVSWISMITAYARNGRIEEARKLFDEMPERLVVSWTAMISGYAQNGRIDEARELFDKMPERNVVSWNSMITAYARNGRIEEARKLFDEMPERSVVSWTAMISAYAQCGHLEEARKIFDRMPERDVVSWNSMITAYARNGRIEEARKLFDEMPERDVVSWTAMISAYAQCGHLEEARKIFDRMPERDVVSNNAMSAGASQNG

[4] = target: T4, GFP-9S library array, motif 4 ND N98K;D124R (synthetic construct, N98K;D124R)
T4 chain: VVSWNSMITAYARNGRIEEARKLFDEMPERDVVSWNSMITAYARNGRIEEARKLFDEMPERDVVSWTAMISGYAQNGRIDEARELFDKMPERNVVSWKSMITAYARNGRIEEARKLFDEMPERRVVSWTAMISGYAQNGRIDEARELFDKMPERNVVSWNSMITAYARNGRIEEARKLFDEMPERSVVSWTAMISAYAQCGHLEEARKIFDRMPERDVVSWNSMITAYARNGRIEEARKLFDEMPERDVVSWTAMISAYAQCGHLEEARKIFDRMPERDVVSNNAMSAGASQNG

[5] = target: T5, GFP-9S library array, motif 4 ND N98D;D124R (synthetic construct, N98D;D124R)
T5 chain: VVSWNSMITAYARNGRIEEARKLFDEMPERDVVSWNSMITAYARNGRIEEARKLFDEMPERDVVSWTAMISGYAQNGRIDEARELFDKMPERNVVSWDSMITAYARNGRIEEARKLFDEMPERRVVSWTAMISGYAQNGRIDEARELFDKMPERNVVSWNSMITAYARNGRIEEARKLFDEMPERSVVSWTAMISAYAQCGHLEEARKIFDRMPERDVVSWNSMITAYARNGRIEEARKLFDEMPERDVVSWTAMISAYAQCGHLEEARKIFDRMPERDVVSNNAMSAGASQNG

What does the source list for AUUACACGUGA (ssRNA) [Cy5-rpoA]?
Kd ([1]; label: 5' Cy5): 89.2 nM; Kd ([2]; label: 5' Cy5): 273 nM; Kd ([3]; label: 5' Cy5): 106 nM; Kd ([4]; label: 5' Cy5): 42.9 nM; Kd ([5]; label: 5' Cy5): 154 nM

AUUAGACGUGA (ssRNA) [Cy5-rpoA-G] was tested. Which Kd ([1]; label: 5' Cy5) did it give?
Its Kd is 79.8 nM.

What about the Kd ([2]; label: 5' Cy5) of the same binder?
The Kd was 326 nM.

What about the Kd ([3]; label: 5' Cy5) of the same binder?
The Kd was 128 nM.

What about the Kd ([4]; label: 5' Cy5) of the same binder?
The Kd was 55.5 nM.

What about the Kd ([5]; label: 5' Cy5) of the same binder?
The Kd was 155 nM.

What does the source list for AUUAAACGUGA (ssRNA) [IR-rpoA-A]?
Kd ([1]; label: 5' IRDye 800CW): 247 nM; Kd ([2]; label: 5' IRDye 800CW): 1420 nM; Kd ([3]; label: 5' IRDye 800CW): 343 nM; Kd ([4]; label: 5' IRDye 800CW): 139 nM; Kd ([5]; label: 5' IRDye 800CW): 326 nM

AUUAUACGUGA (ssRNA) [IR-rpoA-U] was tested. Which Kd ([1]; label: 5' IRDye 800CW) did it give?
The Kd was 263 nM.

What about the Kd ([2]; label: 5' IRDye 800CW) of the same binder?
Its Kd is 561 nM.

What about the Kd ([3]; label: 5' IRDye 800CW) of the same binder?
The Kd was 202 nM.

What about the Kd ([4]; label: 5' IRDye 800CW) of the same binder?
Its Kd is 66.9 nM.

What about the Kd ([5]; label: 5' IRDye 800CW) of the same binder?
The Kd was 282 nM.
